Biological target: maltose-binding protein fragment MBP198–265 [MBP: P0AEX9]
Experiment: ITC; iTC200, 22 °C; 350 μM MBP198–265 in the cell, 3.5 mM TF^PPD-SBD in the syringe; 20 mM potassium phosphate pH 7.0, 100 mM KCl, 0.05% NaN3

“trigger factor tandem domain TF^PPD-SBD (from UniProt P0A850 113-246) (domain or fragment)” showed a Kd of 47 µM and a dH of -5.9 kcal/mol.

Reference: publication PMC6166725
